Laboratory results as given in US7083511B1, “Methods” (The University of Dundee, priority 1998, dated 2006).

Experiments:
SGK [1] = target: T1, SGK (Homo sapiens, UniProt O00141, S422D); assay: Activity of SGK towards synthetic peptides related to Crosstide; type: biochemical; conditions: GST-ΔN-SGK from 293 cells activated by PDK1; each peptide 30 μM
T1 construct: made in house; host or cells: human embryonic kidney 293 cells (pEBG-2T vector)
T1 sequence (O00141 61-431 S422D): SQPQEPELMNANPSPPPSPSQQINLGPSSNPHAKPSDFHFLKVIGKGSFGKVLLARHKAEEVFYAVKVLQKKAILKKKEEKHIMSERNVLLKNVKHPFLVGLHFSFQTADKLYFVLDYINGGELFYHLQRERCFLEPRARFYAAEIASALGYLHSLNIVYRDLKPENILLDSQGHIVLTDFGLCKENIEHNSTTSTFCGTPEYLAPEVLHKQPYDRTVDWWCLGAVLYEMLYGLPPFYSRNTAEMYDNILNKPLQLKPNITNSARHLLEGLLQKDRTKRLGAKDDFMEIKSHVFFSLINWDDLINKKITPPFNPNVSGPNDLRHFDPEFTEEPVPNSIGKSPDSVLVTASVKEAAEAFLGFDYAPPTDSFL
Procedure: Phosphorylation and assay of SGK. Phosphorylation was carried out at 30° C. in 50 μl incubations containing 50 mM Tris/HCl pH 7.5, 0.1 mM EGTA, 0.1% (v/v) 2-mercaptoethanol, 2.5 μM PKI, 1 μM microcystin-LR, 10 mM magnesium chloride and 100 μM ATP. Where indicated lipid vesicles containing phosphatidylcholine (100 μM), phosphatidyl serine (100 μM) and PtdIns(3,4,5)P3 (1 μM) were also included. SGK activity was assayed exactly as described for PKB [6] using the peptide […] (SEQ. ID. NO:30) (“Crosstide”) at 30 μM as substrate. One unit of activity (U) was that amount which catalysed the phosphorylation of […] of Crosstide in one min.

SGK2 = target: T2, SGK2 (Homo sapiens, UniProt Q9HBY8, S356D); assay: Activity of SGK2 toward synthetic peptides related to Crosstide; type: biochemical; conditions: each peptide 30 μM, average of two experiments
T2 construct: pEBG-SGK2α expressing full length of SGK2α; made in house; host or cells: 293 cells (pEBG-2T-2 vector)
T2 sequence (Q9HBY8 1-367 S356D): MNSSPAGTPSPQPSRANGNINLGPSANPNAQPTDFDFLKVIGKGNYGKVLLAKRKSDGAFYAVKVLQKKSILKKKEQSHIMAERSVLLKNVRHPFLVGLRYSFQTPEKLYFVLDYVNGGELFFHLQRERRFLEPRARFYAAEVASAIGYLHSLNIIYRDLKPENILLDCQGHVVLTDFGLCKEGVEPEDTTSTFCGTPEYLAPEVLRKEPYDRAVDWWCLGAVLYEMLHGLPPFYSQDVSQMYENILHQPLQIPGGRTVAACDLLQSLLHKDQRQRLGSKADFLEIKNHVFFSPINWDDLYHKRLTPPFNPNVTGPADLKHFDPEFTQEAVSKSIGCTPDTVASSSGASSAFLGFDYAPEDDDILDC
Procedure: Each GST-SGK isoform (0.4 μg) was incubated for 20 min at 30° C. with protein phosphatase 2A (PP2A, 30 mU/ml) in a 10 μl incubation containing 20 mM Tris/HCl, pH 7.5, 0.1% (v/v) 2-mercaptoethanol, 0.1 mM EGTA and 1 mg/ml bovine serum albumin. After addition of microcystin-LR to 1 μM to inactivate PP2A, SGK (0.4 μg) was phosphorylated for 30 min at 30° C. in a mixture (20 μl) containing 50 mM Tris/HCl, pH 7.5, 10 mM MgCl2, 0.1% (v/v) 2-mercaptoethanol, 0.1 mM EGTA, GST-PDK1 (0.03–300 ng) diluted in Buffer C and 100 μM unlabelled ATP. […] ID. NO:30) and 4.2 μM of residues 5–24 of the specific protein inhibitor of adenosine 3′5′ cyclic monophosphate-dependent protein kinase. After 10 min at 30° C., the reactions were terminated by spotting aliquots on to P81 phosphocellulose paper, followed by immediate immersion in 75 mM phosphoric acid. The papers were washed, dried and analysed. One unit (U) of SGK was that amount which phosphorylated 1 nmole of Crosstide in one min.

SGK1 = target: T3, SGK1 (Homo sapiens, UniProt O00141, S422D); assay: Activity of SGK1 toward synthetic peptides related to Crosstide; type: biochemical; conditions: each peptide 30 μM, average of two experiments
T3 construct: made in house; host or cells: human embryonic kidney 293 cells (pEBG-2T vector)
T3 sequence (O00141 61-431 S422D): T1 sequence (O00141 61-431 S422D)

SGK3 = target: T4, SGK3 (Homo sapiens, UniProt Q96BR1, S486D); assay: Activity of SGK3 toward synthetic peptides related to Crosstide; type: biochemical; conditions: each peptide 30 μM, average of two experiments
T4 construct: SGK3 lacking the N-terminal 52 residues (ΔN-SGK3[53–429]); made in house; host or cells: 293 cells (pEBG-2T-2 vector)
T4 sequence (Q96BR1 120-496 S486D): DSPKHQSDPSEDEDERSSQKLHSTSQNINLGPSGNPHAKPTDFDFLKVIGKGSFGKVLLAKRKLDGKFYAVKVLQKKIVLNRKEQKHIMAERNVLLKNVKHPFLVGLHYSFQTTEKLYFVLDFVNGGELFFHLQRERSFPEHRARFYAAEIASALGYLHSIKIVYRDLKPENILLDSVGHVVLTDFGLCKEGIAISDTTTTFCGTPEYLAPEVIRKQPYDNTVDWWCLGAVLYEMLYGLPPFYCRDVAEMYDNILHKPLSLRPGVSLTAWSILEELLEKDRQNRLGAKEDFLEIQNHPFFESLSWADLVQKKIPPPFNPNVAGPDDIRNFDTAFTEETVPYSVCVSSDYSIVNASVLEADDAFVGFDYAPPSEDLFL

PKBα = target: T5, PKBα (Homo sapiens, UniProt P31749); assay: Activity of PKBα towards synthetic peptides related to Crosstide; type: biochemical; conditions: GST-PKBα from 293 cells activated by PDK1; each peptide 30 μM
T5 construct: pEBG-PKBa expressing full length PKBα; made in house; host or cells: 293 cells (pEBG-PKBα)

SGK [2] = assay: Activation of GST-SGK in transfected 293 cells (Example 1); type: cell-based, human; conditions: PMA 400 ng/ml 30 min, EGF 100 ng/ml 30 min
[3] = GST-SGK2α[S356D] from 293 cells
[4] = GST-ΔN-SGK1[S422D] from 293 cells
[5] = GST-ΔN-SGK3[S419D] from 293 cells

T5 sequence (P31749 whole entry, species assumed): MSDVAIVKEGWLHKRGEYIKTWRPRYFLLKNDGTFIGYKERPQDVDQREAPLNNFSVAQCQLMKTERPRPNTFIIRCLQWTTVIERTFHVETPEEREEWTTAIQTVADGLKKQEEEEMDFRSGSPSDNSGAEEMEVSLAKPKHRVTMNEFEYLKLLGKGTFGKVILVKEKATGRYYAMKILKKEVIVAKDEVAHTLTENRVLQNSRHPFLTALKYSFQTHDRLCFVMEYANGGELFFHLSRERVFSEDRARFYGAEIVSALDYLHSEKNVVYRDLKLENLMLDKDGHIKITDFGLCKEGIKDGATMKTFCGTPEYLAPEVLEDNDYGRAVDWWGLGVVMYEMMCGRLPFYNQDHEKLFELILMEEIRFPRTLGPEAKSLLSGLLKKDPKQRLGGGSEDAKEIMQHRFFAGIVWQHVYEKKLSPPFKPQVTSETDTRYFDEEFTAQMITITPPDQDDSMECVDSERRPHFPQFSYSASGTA

Compound | SGK activity relative to peptide 1 (Crosstide) (SGK [1]) [%] | SGK2 activity % relative to peptide 1 (Crosstide) (SGK2; [3]) [%] | SGK1 activity % relative to peptide 1 (Crosstide) (SGK1; [4]) [%] | SGK3 activity % relative to peptide 1 (Crosstide) (SGK3; [5]) [%] | PKBα activity relative to peptide 1 (Crosstide) (PKBα) [%] | Activation of SGK by the stimulus (in words) (SGK [2]) | SGK2 activity % relative to peptide 1 (Crosstide) (SGK2; […]) [%] | SGK1 activity % relative to peptide 1 (Crosstide) (SGK1; […]) [%] | SGK3 activity % relative to peptide 1 (Crosstide) (SGK3; […]) [%]
RPRTSSK [Peptide 14, ID; NO: 43] | 146 | 128 | 84 | 200 | 48 | – | – | – | –
CCCCCCCCCCCCCC(=O)O[C@@H]1[C@@H](C)[C@@]2(O)[C@@H](C=C(CO)C[C@]3(O)C(=O)C(C)=C[C@@H]23)[C@@H]2C(C)(C)[C@]12OC(C)=O [Phorbol myristate acetate, reference compound] | – | – | – | – | – | did not induce any activation | – | – | –
RPRTSSF [Peptide 2, ID; NO: 39] | 154 | 182 | 135 | 137 | 160 | – | – | – | –
RPRTSSE [Peptide 15, ID; NO: 44] | 84 | 34 | 28 | 67 | 21 | – | – | – | –
RPRTSSL [Peptide 11, ID; NO: 40] | 135 | 185 | 108 | 113 | 69 | – | – | – | –
GRPRTSSFAEG [Peptide 1, ID; NO: 30, reference compound] | 100 | 100 | 100 | 100 | 100 | – | – | – | –
RPRTSSV [Peptide 12, ID; NO: 41] | 131 | 124 | 90 | 139 | 67 | – | – | – | –
RPKTSSF [Peptide 9, ID; NO: 38] | 49 | 8 | 11 | 48 | 26 | – | – | – | –
RPRTSAF [Peptide 3, ID; NO: 32] | <1 | <1 | <1 | <1 | <1 | – | – | – | –
EGF: activator of the classical MAP kinase cascade in 293 cells | – | – | – | – | – | did not induce any activation | – | – | –
RPRTSTF [Peptide 6, ID; NO: 35] | 156 | 192 | 129 | 156 | 208 | – | – | – | –
RPRTSSA [Peptide 13, ID; NO: 42] | 107 | 82 | 49 | 123 | 26 | – | – | – | –
RPRTSS [Peptide 5, ID; NO: 31] | 10 | 8 | 5.1 | 18 | <1 | – | – | – | –
RPRAATF [Peptide 7] | 73 | – | – | – | 55 | – | 61 | 44 | 56
PRTSSF [Peptide 4, ID; NO: 33] | <1 | <1 | <1 | <1 | <1 | – | – | – | –
KPRTSSF [Peptide 8, ID; NO: 37] | 2 | <1 | <1 | <1 | 6 | – | – | – | –
